Laboratory results published in the DeepSol protein solubility set.

Experiment: soluble on expression in E. coli; label from the status in PepcDB or PDB records
In the case of “MSTAQAVKIGIAEMEVVIAPNVIRTCGLGSCVGVVIYDAGKAVAGMAHVMLPHSSMARGGVINAAKYADTAVEALVQLVIAAGGRKGMLKAKLAGGAQMFSFSTVGGDMMRIGARNVEEVKKQLERLHIPVVAEDVGGHSGRTIEFNPQTGVLSIRTAAQEIKEI”, the “soluble on expression in E. coli” value is reported as “not soluble”. For “MTALESSYLNLAYPPRLDLGPQLTHDQLRSSMQSTMARHKGGPVWLFAYGSLIWRPECSAVERKRGRVHGYHRGLYLWSHEHRGTPELPGLVFGLDRGGSCSGFAYRLPEEQLDASLYALWQREMPYPSYRPHWLNCRLEDGSQVQALGFVLERHLPSYAGNLPDDVLNQVFESACGRYGTTRDYVEQTVQALRSHAMPDRNLEARLKRCKGADAHLEHHHHHH”, the “soluble on expression in E. coli” value was “not soluble”. For “DYKDIVLTQSHKFMSTSVGDRVSITCKASQDVGTAVAWYQQKPGQSPKLLIYWASTRHTGVPDRFTGSGSGTDFTLTISNVQSEDLADYFCQQYSSYPLTFGAGTKLELKRGGGGSGGGGSGGGGSGGGGSQVQLQESGGELVRPGASVKLSCKASGYTFTSYWINWVKQRPGQGLEWIGNIYPSDSYTNYNQKFKDKATLTVDKSSSTAYMQLSSLTSEDSAVYFCARWGYWGQGTLVTVSAASGAHHHHH”, the “soluble on expression in E. coli” value was “soluble”. In the case of “RDFNNLTKGLCTINSWHIYGKDNAVRIGEDSDVLVTREPYVSCDPDECRFYALSQGTTIRGKHSNGTIHDRSQYRALISWPLSSPPTVYNSRVECIGWSSTSCHDGKTRMSICISGPNNNASAVIWYNRRPVTEINTWARNILRTQESECVCHNGVCPVVFTDGSATGPAETRIYYFKEGKILKWEPLAGTAKHIEECSCYGERAEITCTCRDNWQGSNRPVIRIDPVAMTHTSQYICSPVLTDNPRPNDPTVGKCNDPYPGNNNNGVKGFSYLDGVNTWLGRTISIASRSGYEMLKVPNALTDDKSKPTQGQTIVLNTDWSGYSGSFMDYWAEGECYRACFYVELIRGRPKEDKVWWTSNSIVSMCSSTEFLGQWDWPDGAKIEYFL”, the “soluble on expression in E. coli” value is reported as “soluble”. In the case of “MIDGIESGLGIAQAFPSVTGEAKPGNLAADGGKFFGELVSKVSELQAQSDTAIKGLVSGESKGLHEVMIAMEKSSISFQFLSQVRNKAVEAYQEVMRMQV”, the “soluble on expression in E. coli” value is reported as “not soluble”. For “MSLVAFHEVRFPLRLALGVSGGPVRRTDIVNLSNGRENRNQRWRNARRAYDAGSGIRSVADLYEVLAFFEARRGEMYGFRFRDPVDFKSCPPGETPAATDQRIGTGDGVVTGFQLVKTYADAGGSFSRRIDKPVEGSVIVSVEGVKAAPTDLSVDHATGMVIFRAGRAPPTGAVIRAGFEFDVPVRFAIDRIDINVTAFEAGRIPSIPLMEILPEGHHHHHH”, the “soluble on expression in E. coli” value was “soluble”. In the case of “MADEIAKAQVARPGGDTIFGKIIRKEIPAKIIFEDDQCLAFHDISPQAPTHFLVIPKKHISQISAAEDADESLLGHLMIVGKKCAADLGLKKGYRMVVNEGSDGGQSVYHVHLHVLGGRQMNWPPG”, the “soluble on expression in E. coli” value is reported as “soluble”. With “MGSDKIHHHHHHTDDEEKDNNGQGSVSVETNYLPIADPYVMFYNNKYYAYGTGGTTAGEGFACFSSDDLKNWKREGQALSATDSYGTWGFWAPEVYYVESKKKFYLFYSAEEHICVATSTTPEGPFRQEVKQPIWSEKSIDTSLFIDDDGTPYLYFVRFTDGNVIWVAQMTDDLMSIKTETLNQCIKAEVSWELLQGKVAEGPSLLKKNGVYYLIYSANHYENKGYGVGYATSDTPMGPWVKYSKNPLLQGDAATGLVGTGHGAPFQCKDGSWKYIFHAHWSAAEIQPRTSYIKDFAISDQGVVTISGTVIKPRVLK” the “soluble on expression in E. coli” value was “not soluble”. For “MGRMNVSMMRYLEGDHFRVLIAVEMGMKNHEVVPLALVSAIAGIHRGGVARTLNDLCKHSLVAFERSKKFDGYRLTIRGYDYLALRALCSREVVGSVGNQIGIGKESDVYVGGDPELNDLCLKFHRLGRTSFRKIKEKRDYHKKRKSASWLYLSRLAAAKEFAFLKALQERGFPVPKAVDVCRHLVVMQLVVGQTLCNVTHVEDAGALYDRLMALIVKMARHGVIHGDFNEFNLIMLEDERIVMIDFPQMVSIDHPNAEYYFDRDVTCVRTFFKRKFDYESEDWPKFDEVERKGNMDVLLEASGFTKKMALDLNKAYDEGDFLAHCEQELRNRQEEDLGEDEDDSDDSKSMEDIQEEPEDLEKDHEELQAQENTVKQQKIVLSQTTRFTDWLSDATNQLEAVDLDALKSEEGYKDIELPPEDFKRPADSENDDENDEDEEEGEEEDADGHVAVEEQVAKVVKKKRVPSGARSVASSAATFTAEDVKRRLALDRKRNKEKIRLKVKGKQSAVGRNRKDNKDVIAEYAGWI”, the “soluble on expression in E. coli” value was “not soluble”. With “MSRTIMLIPISAGVGLTSVSMGLLRAMERKGVSVSFYKPIAQPRTGDDQPDLTSTVMSRNSDIKIGQPMSMSAAETLIGSEKMDVLLETVVERYNQINKDAEVTLIEGLVPTRKHPFANQVNAEIANTLGAEIVFVATPGTDNPTQLKERIEVACSNFGGTKNKSISGVIINKLNAPVDEAGRTRPDLSEIFDDADHAKQANLEVMQIFNTSPIRVLGCVPWSIDLIATRAIDMAKHLKAE” the “soluble on expression in E. coli” value was “not soluble”. With “MGSDKIHHHHHHMSNHNWTRRDFIKGVGATTAGITLSACNPSGDRSATGLTQEALTIKPVIKSSDLEKPDLIVGYVPVNDCAPFAIAWKKGFFRKYGLNVQLNREASWATSRDGLIFGRLDAAPVVSGAVTNARIGAEGARHAPLCAAMTIHRHGNAMTMNKAMWDFGLRPWYEYQEKYGDGALEAFGRDFRGYFEKQPPENKVWAVVLSSAIYEYFVRYVSAAAGVDPLKEFRVIIVPPPQMVTNVRIGAMQAYMVAEPWNTRAITGNEGIGFTFAQGKEVWLGHPDRLLGVMESFIDQYPKTYRSLVKAMIEACQYCSKPENRQEVAELITDRSFTGARPKNKNLPITKLTAPGIIGSYNYGGFDGKDRTIPAADTTIFYDIPDNLPKQPAEHSTFLWRSRSLWLMTQAARWGQIKEFPKNAEQLAEKGWRTDLYRQIAAEMGIQCPQDDYKVEPPEVFIDKKGFDPSDPVGYLNSFAIRANAPTRFFLS” the “soluble on expression in E. coli” value was “not soluble”. For “MSLDQYGNIRAMGIHSLLYCERLFYLEEVEGILVADDRVYAGRTLHEELEPNEDFSGRIESFHYTSEKLEVSGKVDRIQKRDGDWIPYEHKRGRARIGTNGPEAWESDQCQVTVYALLLEEATGRNISEGKIRYHGSKDLVKIEIDEELRSKALKTIDRAKELSTSTNRPPVAQNENLCKNCSLAPVCLPEETRVITENEYEPIRLFPEKREGHHHHHH”, the “soluble on expression in E. coli” value was “soluble”. With “MPATTSIPPVTAPGTGGEASSFNVDELIQYVLQGKPLSEPQVARLCQKAREVLEKEENVHTVRAPVTVCGDIHGQFHDLLELLKIGGLPPDTNYLFMGDYVDRGYYSVETVTLLLLFKIRYPERVQILRGNHESRQITQVYGFYDECVRKYGSANVWKLLTDLFDYLPLAAVVENEIFCLHGGLSPTLDSLAHIRSLERVQEVPHEGPMCDLLWSDPEDKDGWGISPRGAGFTFGADITEQFCHNNGLKTIARAHQLVAEGYSWAHSDKLVTIFSAPNYCYRCGNLAGLLELDEHMNKCFFQFDPAPRRGEAQVSKKTPDYFL” the “soluble on expression in E. coli” value was “not soluble”. With “MLDYFFNPKGIAVIGASNDPKKLGYEVFKNLKEYKKGKVYPVNIKEEEVQGVKAYKSVKDIPDEIDLAIIVVPKRFVKDTLIQCGEKGVKGVVIITAGFGETGEEGKREEKELVEIAHKYGMRIIGPNCVGIMNTHVDLNATFITVAKKGNVAFISQSGALGAGIVYKTIKEDIGFSKFISVGNMADVDFAELMEYLADTEEDKAIALYIEGVRNGKKFMEVAKRVTKKKPIIALKAGKSESGARAASSHTGSLAGSWKIYEAAFKQSGVLVANTIDEMLSMARAFSQPLPRGNKVAIMTNAGGPGVLTADELDKRGLKLATLEEKTIEELRSFLPPMAAVKNPVDMIASARGEDYYRTAKLLLQDPNVDMLIAICVVPTFAGMTLTEHAEGIIRAVKEVNNEKPVLAMFMAGYVSEKAKELLEKNGIPTYERPEDVASAAYALVEQAKNVGILEVE” the “soluble on expression in E. coli” value was “soluble”. In the case of “MGSDKIHHHHHHAKTTTQHGNALAAYNVKRYKTVKNRNLFVKRYAFQQSYTNIFQTSPTQISSTKGKAVTFKSNVFLPVTYQRSADWGNPQSEVLTPNGNTLYELITTSSQSTTGRIVRYNLGALRHFGITSTHMDALRRATYDHSVGKLTATDKAILKNVTVGPLFNTGHGQSLARNPKNGQLWFIGKPGAVKSNVQQVSTKTLKPSTKVNFTLKNTVPMGSNLTFDKHGKAYFFTYSNGGWAPKGAVKIYQGTISTKSVHFHLVMQGLRYAPGTKPQSMAYNAKRNRLYFVSDSSLASIPVSKLGKLKASQVEGTNLNGHREFEGLQFTSNGSGYLLVNKGAELMQTTHATF”, the “soluble on expression in E. coli” value is reported as “not soluble”. For “MGSDKIHHHHHHGCEKEKSHTVLELFSESQSLSPKKDFYVNEDSIAIIEGLSCDGKNLIVNDYHSGCCYTLFDKKSGEYIARFGTIGQGPAELPSPCYGYLTESDFTVFDDQTRIVMKYSLDSLRNSRKKDGSPVRLAQYKIPEAQISKLIAIDDTTFLCAGTYKSRYQYLLFNKNDSVLDYGVDVYNAADSAFQTYTRYLSNQGNLVMNPEKHTFAGSINFSSNIDFFEIVNNKIELIKSLRLGDPINKPVNEEGIYYVDLTENTQTGYIDLSATSKYVYALYSDKKMYENNRKSDTVLVFDWDGNPIKKYSLDTDAYYIAVDSTQQSLFAAVKNSSSGWKIICYALD”, the “soluble on expression in E. coli” value was “not soluble”. In the case of “MGQWANLKAKVIQLWENTHESISQVGLLGDETGIIKFTIWKNAELPLLEQGESYLLRSVVVGEYNDRFQVQVNKNSSIEKLSEPIEVGLEHHHHHH”, the “soluble on expression in E. coli” value is reported as “not soluble”. For “MSLTMDVPPTIHVPLPPTSYPAFDAAIFTDIGGRKHQEDRFTLCPQLVPGRDDCAFFGVFDGTVGDFASENVKDLVVPQLISSPAWQEVTEMLRSDVPATEVDEKLPQLLDQAVDDMYKNADNELVKMCEQLNKDYASSTSVTAVLAKGFVAVGHLGDSRIAMGVETPNGLNCEFLTVDHKPDMPHEKLRIMRNGGSVEYLHNHNNKPFIRGGDFSFRKSRGEQPMQLQYSRAFGGKDLKMYGLSNQPDVRVVRVTPQHRVMILATDGLWDVMSAAQAVEIAMQARQEGRNPAQALVEMTLAEQQSRNQSADNITAMTVFFKKTDEGHHHHHH”, the “soluble on expression in E. coli” value was “soluble”. With “MTADLPDEIDETPLDGEYAHDSSPTLLYAIKQVELAIRSHMDALLRPMGITALQYTALTVLRRRDGLSSAELARNSFVTAQTMGEMLSALERRGLVTRRVDPANRRRMLTSLTADALDLLAEYDTSICGLEEQMLADMSVRQRDAFRGYLGRCRIALAETPAH” the “soluble on expression in E. coli” value was “not soluble”. In the case of “MGSSHHHHHHSSGLVPRGSHMFTTKLAEKVVSAWKAKISQPALKAAQDGVIDTVAAALGGVTEHSVQVALKYVAATGGSGDSKLWGVNQRSNMFDAAFVNGMAAHAIDFDDSFPVMRGHPSSSLVPAIFAVGEHVGANGHNCLKSYVLGIEVVATLGRAVGKGHYLAGWHPTSTLGVFGATTAAALLLGADEEQLRNAWGIAASNSCGIIKNFGTMTKPMHTGSAARNGVLSAWLSMQSFTGCQTVFDDAEGILAMYGAQPGPELFNAMQKFGTPWAIIAPGLYKKSWPSCYANHKPLAGLFAIMKEHGLTGQDISHVDVGFLPGVEKPLLYMDPRTTEEAKFSIEANIGAALLDGEVSLASFEIEHLDRPAMRAAMKKVTRFDMPSETTFSGTTGYTDIVVHTADGKIERRIEATPGSLEDPMDDAHLERKFKDCTAWMPFGESGLLFDRLRSLTADQGIKTVQP”, the “soluble on expression in E. coli” value is reported as “soluble”.
